Experimental data as given in publication PMC4760774.

Target: Dengue virus serotype 3 nonstructural protein 5 with a six-residue deletion in the priming loop (DENV3 NS5-Δ6) (dengue virus serotype 3 (DENV3))
Assay: crystal structure

For “Dengue virus serotype 3 nonstructural protein 5 with a six-residue deletion in the priming loop (DENV3 NS5-Δ6) (enzyme)”, the stoichiometry N was 2.
